Target: T1, biotinylated human soluble TWEAK (human, UniProt O43508, biotin (site not stated))
T1 construct: TWEAK, human, soluble form; Captured on a streptavidin (SA) sensor by its biotin; also called biotinylated TWEAK ligand
Test: SPR; Biacore 2000, SA sensor, biotinylated human soluble TWEAK coupled at 150 RU; antibody injected at 100 nM, 2 min association, 5 min dissociation at 25 C in HBS-ET (10 mM HEPES pH 7.4, 150 mM NaCl, 1 mM EDTA, 0.05% Tween 20); half-life from kd of the interval 240-300 s
Conditions: both partners purified

T1 sequence (O43508 94-249): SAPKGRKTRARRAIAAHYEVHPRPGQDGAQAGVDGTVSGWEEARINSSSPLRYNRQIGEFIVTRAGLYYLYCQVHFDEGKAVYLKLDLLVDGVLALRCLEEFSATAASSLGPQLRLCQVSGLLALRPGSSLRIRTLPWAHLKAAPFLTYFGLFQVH

t/2 diss (half-life of immunocomplex): 147 min
B1: chi TW-305 (chimeric rabbit anti-TWEAK monoclonal antibody) (antibody, V domains shown)
VH: QEQLVESGGGLVQPGGSLTLSCKASGFDFSTYYMSWVRQAPGKGLEWIGTVYVRQGTTYYASWLNGRFTISSDNAQNTVDLKMNSLTAADTATYFCAKGGYNYDDAFVIWGPGTLVTVSF
VL: AIEMTQTPFSVSAAVGGTVTINCQASQNIYSNLAWYQQKPGQPPKLLMYTASYLASGVPSRFKGSGSRTEYTLTISGVQCADAATYYCQTAYYNSRPDTVAFGGGTEVVVK
notes: Fab part as the heavy chain of m5 (PDB 4HT1); as the light chain of m5 (PDB 4HT1); Whole antibody from which the Fab m5 was cut; source: produced by standard procedures

— paper PMC3648529 (PLoS ONE, 2013)
